As usually defined, the Kd is the equilibrium constant for the complex coming apart.

This note sets out measurements from paper PMC3500698 (Science signaling, 2012).

One assay concerns JNK1, p38α and ERK2. As to the kind of experiment: MAPK interaction profile from FP binding affinities. More on the design: species or system human. The note with it: from FP binding affinities to JNK1, p38α and ERK2.
The target of the next assay is p38α (human) (UniProt Q16539). As to the kind of experiment: fluorescence polarisation.
Chain of p38α (human) (Q16539 whole entry): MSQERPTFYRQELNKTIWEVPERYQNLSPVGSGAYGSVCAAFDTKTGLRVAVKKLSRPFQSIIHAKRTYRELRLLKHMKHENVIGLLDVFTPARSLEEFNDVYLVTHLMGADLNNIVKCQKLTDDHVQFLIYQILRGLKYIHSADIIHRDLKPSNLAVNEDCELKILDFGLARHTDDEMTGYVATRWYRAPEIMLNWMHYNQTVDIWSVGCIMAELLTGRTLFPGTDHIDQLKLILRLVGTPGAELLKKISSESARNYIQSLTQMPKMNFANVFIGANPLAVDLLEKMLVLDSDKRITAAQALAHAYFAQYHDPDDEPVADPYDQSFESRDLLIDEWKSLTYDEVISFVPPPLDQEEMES
The target in assay [1] is extracellular signal-regulated kinase 2 (ERK2) (human) (UniProt P28482). Description: fluorescence polarisation. For orientation: In fluorescence polarisation assays a small probe gives low polarisation when free and higher when bound to something large.
Chain of extracellular signal-regulated kinase 2 (ERK2) (human) (P28482 whole entry): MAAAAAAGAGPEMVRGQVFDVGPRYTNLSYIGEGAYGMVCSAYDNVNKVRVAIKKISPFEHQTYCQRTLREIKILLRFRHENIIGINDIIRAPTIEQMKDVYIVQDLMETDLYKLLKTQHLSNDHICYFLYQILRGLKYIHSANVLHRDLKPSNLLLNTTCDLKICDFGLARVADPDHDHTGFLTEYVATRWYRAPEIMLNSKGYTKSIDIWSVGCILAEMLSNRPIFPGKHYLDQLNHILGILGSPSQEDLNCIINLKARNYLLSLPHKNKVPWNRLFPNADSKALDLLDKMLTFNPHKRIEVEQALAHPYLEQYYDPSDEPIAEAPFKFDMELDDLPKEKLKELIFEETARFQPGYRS
Assay [2] deals with extracellular signal-regulated kinase 2 (ERK2) (human, UniProt P28482). Description: fluorescence polarisation.
Chain of extracellular signal-regulated kinase 2 (ERK2) (P28482 whole entry): as above
For another assay, the target named is p38α (human, UniProt Q16539 1-360). As to the kind of experiment: fluorescence polarisation.
Chain of p38α (Q16539 whole entry): as the sequence (Q16539 whole entry) above

Consider LERPSRDHLYLPLE [pepNFAT4], for which the “MAPK binding profile (in words)” value was “bound JNK1 exclusively” in the assay with JNK1, p38α and ERK2; “JNK-specific” in the assay with JNK1, p38α and ERK2 (listed as NFAT4).
As to “pepMK2 (C-terminal MAPK docking peptide of MK2)”, the fold preference for the cognate MAPK (p38α against ERK2) with p38α (human) is 400 fold.
In the case of “pepRSK1 (C-terminal MAPK docking peptide of RSK1)”, the fold preference for the cognate MAPK (ERK2 against p38α) in assay [1] turned out to be 20 fold.
Consider LSLSSLAASSLAKRRQQ (designed binder) [pepSynth-revD (artificially designed revD-motif peptide)], for which the Kd was roughly 10 µM in assay [2] and roughly 30 µM in the assay with p38α.
